This note sets out measurements from paper PMC7431413, “Selective inhibition of STAT3 signaling using monobodies targeting the coiled-coil and N-terminal domains” (Nature Communications, 2020).

Where no end group is shown, it is not given here. [ ]: non-standard residue; d: D form. pY = N[C@@H](Cc1ccc(OP(=O)(O)O)cc1)C(=O)O

This assay concerns the target T1, recombinant core fragment (CF) of STAT3 (human, UniProt P40763 127-722).
T1 construct: STAT3, human, core fragment (CC, DBD and SH2 domains), a.a; For the crystal the methods say 'TEV cleaved-MS3-6 and STAT3-CF'; it is not clear whether the tags of STAT3-CF were cut too; also called STAT3-CF; source: E. coli BL21 (DE3), pHBT vector, purified (Ni-NTA, SEC)
Nature of the assay: fluorescence polarisation; fluorescent gp130 pY-peptide and recombinant STAT3-CF (Supplementary Fig. 3a); TBS (50 mM Tris pH 7.5, 150 mM NaCl). As to conditions: both partners purified. A general note: In fluorescence polarisation assays a small probe gives low polarisation when free and higher when bound to something large.

T1 sequence (P40763 127-722): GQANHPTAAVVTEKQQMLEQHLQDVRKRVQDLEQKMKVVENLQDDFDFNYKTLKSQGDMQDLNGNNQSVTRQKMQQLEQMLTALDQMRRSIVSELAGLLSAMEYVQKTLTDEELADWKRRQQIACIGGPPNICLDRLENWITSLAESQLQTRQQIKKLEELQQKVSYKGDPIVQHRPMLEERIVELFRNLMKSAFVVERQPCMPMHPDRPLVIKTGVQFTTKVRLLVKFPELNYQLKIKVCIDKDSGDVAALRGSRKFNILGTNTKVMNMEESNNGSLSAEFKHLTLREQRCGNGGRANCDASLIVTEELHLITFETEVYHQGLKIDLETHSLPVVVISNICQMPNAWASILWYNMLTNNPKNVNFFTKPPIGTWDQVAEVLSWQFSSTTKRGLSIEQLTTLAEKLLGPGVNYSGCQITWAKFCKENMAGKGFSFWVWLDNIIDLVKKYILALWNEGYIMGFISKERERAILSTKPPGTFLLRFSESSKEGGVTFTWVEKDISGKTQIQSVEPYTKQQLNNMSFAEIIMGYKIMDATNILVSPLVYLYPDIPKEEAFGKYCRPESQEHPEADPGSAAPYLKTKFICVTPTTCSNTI

B1: fluorescent pY-peptide encompassing the pY905 docking site of gp130 (peptide)
peptide: GMPKS[pY]LPQTVR-NH2
modifications: not fully specified (N-terminus)
notes: gp130, cytosolic tail around the Y905 docking site; also called gp130 pY-peptide; phospho-gp130 peptide; source: synthetic peptide
For B1, the Kd (as a rule, the constant that tells how readily two partners part at equilibrium) turned out to be 930 nM.
